Results on one molecule are retold here after article PMC7924758, “IAA3-mediated repression of PIF proteins coordinates light and auxin signaling in Arabidopsis” (PLoS Genetics, 2021).

For the assay, the target named is T1, His-PIF1 (Arabidopsis thaliana, UniProt Q8GZM7 1-478).
T1 construct: also called His-tagged PIF1; source: E. coli Transetta (DE3), purified (Ni-NTA agarose)
T1 sequence (looked up): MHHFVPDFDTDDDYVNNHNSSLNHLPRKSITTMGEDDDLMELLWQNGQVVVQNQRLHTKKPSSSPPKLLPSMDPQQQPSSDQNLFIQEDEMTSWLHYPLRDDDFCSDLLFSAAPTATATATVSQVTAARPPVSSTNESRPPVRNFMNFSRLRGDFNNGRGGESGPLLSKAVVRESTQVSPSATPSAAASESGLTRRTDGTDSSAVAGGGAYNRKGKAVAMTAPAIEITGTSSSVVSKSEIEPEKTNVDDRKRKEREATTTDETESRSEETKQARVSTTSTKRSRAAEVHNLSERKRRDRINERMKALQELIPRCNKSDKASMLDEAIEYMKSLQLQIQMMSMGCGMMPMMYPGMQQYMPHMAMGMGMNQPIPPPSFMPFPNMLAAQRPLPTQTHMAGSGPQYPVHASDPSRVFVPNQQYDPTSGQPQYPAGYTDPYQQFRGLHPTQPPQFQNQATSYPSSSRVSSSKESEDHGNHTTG
Description: pull-down; MBP or MBP-IAA3 held on amylose resin, His-PIF1 or His-PIF4 added, 3 h at 4°C; 50 mM Tris-Cl pH 8.0, 150 mM NaCl, 10% glycerol, 0.5 mM EDTA, 0.1% Triton X-100, 5 mM β-mercaptoethanol; five washes; blots with anti-MBP and anti-His. Particulars: both partners purified.

B1: MBP-IAA3 (natural protein, Arabidopsis thaliana, UniProt Q38822 1-189, looked up)
chain: MDEFVNLKETELRLGLPGTDNVCEAKERVSCCNNNNKRVLSTDTEKEIESSSRKTETSPPRKAQIVGWPPVRSYRKNNIQSKKNESEHEGQGIYVKVSMDGAPYLRKIDLSCYKGYSELLKALEVMFKFSVGEYFERDGYKGSDFVPTYEDKDGDWMLIGDVPWEMFICTCKRLRIMKGSEAKGLGCGV
notes: IAA3 (SHY2), AUX/IAA transcriptional repressor, Arabidopsis; also called SHY2; source: E. coli Transetta (DE3), purified (amylose agarose)
B1: the binding result is on record as “binds”.
